In patent US20220169688A1 (Dana-Farber, published 2022):
Bridge positions count the residues as written; N and C are the ends. Square brackets hold non-standard residues; d marks the D form. Primed or numbered codes have the meaning given here. Ends that are not written are not given here. R8 = C=CCCCCCC[C@@](C)(N)C(=O)O; S5 = C=CCCC[C@](C)(N)C(=O)O; FITC′ = not defined here; Nle = CCCC[C@H](N)C(=O)O

B1: C-terminally biotinylated SAH-UBE2A (peptide)
peptide: Ac-[Nle]STP[R8]RRRL[Nle]R[S5]FKRLQ-biotin
modifications: staple 5-12
notes: also called biotinylated peptide; not shown: C-terminal biotin handle
B2: FITC-SAH-UBE2A (FITC conjugated to SEQ ID NO: 132) (peptide)
peptide: [Nle]STP[R8]RRRL[Nle]R[S5]FKRLQ-{FITC′}
modifications: staple 5-12
notes: also called FITC-labeled SAH-UBE2A-11; FITC-labeled peptide

Assays:
[1] = biological target: T1, recombinant human E1 activating enzyme UBA1 (human, UniProt P22314 1-1058, limits assumed); experiment: streptavidin-biotin pull-down, silver-stained protein gel
T1 construct: also called UBE1
T1 sequence: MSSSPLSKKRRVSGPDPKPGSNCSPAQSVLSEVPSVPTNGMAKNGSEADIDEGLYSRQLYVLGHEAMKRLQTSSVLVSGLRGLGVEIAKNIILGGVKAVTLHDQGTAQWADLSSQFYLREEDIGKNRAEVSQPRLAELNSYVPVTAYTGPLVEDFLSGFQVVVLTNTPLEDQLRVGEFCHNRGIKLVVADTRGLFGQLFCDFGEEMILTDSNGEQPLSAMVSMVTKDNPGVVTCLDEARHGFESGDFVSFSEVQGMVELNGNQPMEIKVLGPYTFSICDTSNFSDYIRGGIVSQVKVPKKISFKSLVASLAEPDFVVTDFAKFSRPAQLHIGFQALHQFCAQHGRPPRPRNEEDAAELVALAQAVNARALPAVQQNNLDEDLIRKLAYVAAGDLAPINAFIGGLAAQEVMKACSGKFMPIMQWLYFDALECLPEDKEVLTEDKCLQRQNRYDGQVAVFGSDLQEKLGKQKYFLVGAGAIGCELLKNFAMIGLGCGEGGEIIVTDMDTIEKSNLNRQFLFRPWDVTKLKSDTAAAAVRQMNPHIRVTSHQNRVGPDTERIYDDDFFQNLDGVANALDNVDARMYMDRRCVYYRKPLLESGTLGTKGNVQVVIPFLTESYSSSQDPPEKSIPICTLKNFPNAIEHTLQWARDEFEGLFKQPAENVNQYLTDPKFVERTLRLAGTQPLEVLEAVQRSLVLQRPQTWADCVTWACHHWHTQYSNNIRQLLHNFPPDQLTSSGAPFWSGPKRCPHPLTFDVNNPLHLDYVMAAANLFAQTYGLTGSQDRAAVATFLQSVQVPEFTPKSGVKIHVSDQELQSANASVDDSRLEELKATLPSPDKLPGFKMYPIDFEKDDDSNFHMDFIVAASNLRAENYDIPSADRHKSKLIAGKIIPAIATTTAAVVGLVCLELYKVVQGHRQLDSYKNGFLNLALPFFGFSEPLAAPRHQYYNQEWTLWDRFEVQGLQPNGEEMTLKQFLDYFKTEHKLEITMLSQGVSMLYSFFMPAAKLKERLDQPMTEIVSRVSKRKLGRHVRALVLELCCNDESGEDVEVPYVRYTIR
Experimental: (§1) 30 μL of pre-equilibrated streptavidin agarose beads were then added and incubated for an additional 1.5 hours at 4° C. The beads were pelleted by centrifugation and washed three times with NP-40 buffer (20 mM HEPES, pH 7.4, 50 mM NaCl, 5 mM DTT, 0.5% [v/v] NP-40) before eluting the protein sample from the beads by heating at 70° C. for 10 min in 3×SDS loading buffer. Samples were subjected to electrophoresis and silver staining (Pierce 24612). […] 30 μL of pre-equilibrated streptavidin agarose beads (ThermoFisher 20357) were then added and incubated for an additional 1.5 hours at 4° C. The beads were pelleted by centrifugation and washed three times with NP-40 buffer (20 mM HEPES, pH 7.4, 50 mM NaCl, 5 mM DTT, 0.5% [v/v] NP-40) before eluting the protein sample from the beads by heating at 70° C. for 10 min in 3×SDS loading buffer. Proteins were separated by SDS-PAGE gel electrophoresis and detected by western blot against UBE1 (Abcam ab34711). […] Conjugation of ubiquitin to E2 by E1 is monitored by conversion of free E2 (17 kDa) to E2˜ubiquitin conjugate (26 kDa). Quantitation of percent inhibition was calculated from densitometry of silver stain images.

[2] = biological target: T2, native UBA1 in HeLa cell lysate (human, UniProt P22314 2-1058, limits assumed); experiment: streptavidin-biotin pull-down from HeLa cell lysate, western blot
T2 construct: Endogenous protein in HeLa cell lysate or S100 fraction; also called UBE1
T2 sequence: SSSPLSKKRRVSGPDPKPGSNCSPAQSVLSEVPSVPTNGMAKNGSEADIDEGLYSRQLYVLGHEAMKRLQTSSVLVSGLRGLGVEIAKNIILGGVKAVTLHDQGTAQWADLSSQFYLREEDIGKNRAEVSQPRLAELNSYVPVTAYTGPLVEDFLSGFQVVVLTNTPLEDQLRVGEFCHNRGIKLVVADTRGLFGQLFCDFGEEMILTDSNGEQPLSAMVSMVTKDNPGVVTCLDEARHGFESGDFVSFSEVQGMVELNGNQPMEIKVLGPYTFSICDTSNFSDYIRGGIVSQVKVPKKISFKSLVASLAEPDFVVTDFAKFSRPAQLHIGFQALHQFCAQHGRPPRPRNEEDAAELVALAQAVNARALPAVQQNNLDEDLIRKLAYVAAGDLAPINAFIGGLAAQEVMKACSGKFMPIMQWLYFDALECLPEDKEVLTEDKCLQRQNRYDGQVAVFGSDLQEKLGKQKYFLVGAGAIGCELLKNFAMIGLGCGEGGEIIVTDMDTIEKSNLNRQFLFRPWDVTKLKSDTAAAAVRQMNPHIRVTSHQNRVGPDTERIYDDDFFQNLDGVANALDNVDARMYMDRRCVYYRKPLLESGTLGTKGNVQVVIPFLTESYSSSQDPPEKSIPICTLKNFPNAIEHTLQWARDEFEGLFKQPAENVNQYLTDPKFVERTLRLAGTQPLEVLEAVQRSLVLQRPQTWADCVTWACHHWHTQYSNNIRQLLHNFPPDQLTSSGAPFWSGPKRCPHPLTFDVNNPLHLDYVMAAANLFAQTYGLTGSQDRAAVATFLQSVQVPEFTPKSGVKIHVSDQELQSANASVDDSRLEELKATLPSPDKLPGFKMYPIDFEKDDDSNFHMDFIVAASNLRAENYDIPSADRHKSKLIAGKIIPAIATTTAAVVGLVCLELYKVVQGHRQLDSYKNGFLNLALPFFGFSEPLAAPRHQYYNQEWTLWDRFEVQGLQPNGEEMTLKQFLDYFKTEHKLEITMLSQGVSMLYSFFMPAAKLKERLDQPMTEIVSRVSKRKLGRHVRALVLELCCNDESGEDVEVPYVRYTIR
Experimental: as §1

[3] = biological target: T1, recombinant human E1 activating enzyme …; experiment: fluorescence polarization, without and with ubiquitin and ATP
From the text: In vitro Binding Assays: To assess the binding and affinity of ligands to acceptor proteins, a fluorescence polarization assay (FPA) can be used, for example. The FPA technique measures the molecular orientation and mobility using polarized light and fluorescent tracer.

[4] = biological target: T3, His-tagged UBA1 captured on Ni-NTA agarose beads (human, UniProt P22314 1-1058, limits assumed); experiment: fluorescence microscopy of Ni-NTA agarose beads carrying His-UBA1; 10 µM FITC-labeled peptide
T3 construct: also called His-UBA1; His-UBE1; not shown: His tag
T3 sequence: T1 sequence
Experimental: Fluorescence Microscopy: His-tagged UBA1 (25 μg) was incubated with Ni-NTA agarose beads (100 μl) (Invitrogen™ R90110) in PBS for 30 min. […] Beads were plated in 386-well plate format (10 μl/well) (Corning 384-well High Content Imaging Glass Bottom Microplate) and imaged with an Olympus wide-field epifluorescence microscope, a 63× LCPlanFL NA 0.7 objective, and a CoolSNAP DYNO camera.

His-tagged p53 = biological target: T4, His-tagged p53 (UniProt P04637 1-393, limits assumed); experiment: fluorescence microscopy of Ni-NTA agarose beads carrying His-p53, incubated with FITC-labeled peptide
T4 construct: Control protein captured on Ni-NTA agarose beads; also called His-p53; unrelated protein control; not shown: His tag
T4 sequence (P04637 whole entry): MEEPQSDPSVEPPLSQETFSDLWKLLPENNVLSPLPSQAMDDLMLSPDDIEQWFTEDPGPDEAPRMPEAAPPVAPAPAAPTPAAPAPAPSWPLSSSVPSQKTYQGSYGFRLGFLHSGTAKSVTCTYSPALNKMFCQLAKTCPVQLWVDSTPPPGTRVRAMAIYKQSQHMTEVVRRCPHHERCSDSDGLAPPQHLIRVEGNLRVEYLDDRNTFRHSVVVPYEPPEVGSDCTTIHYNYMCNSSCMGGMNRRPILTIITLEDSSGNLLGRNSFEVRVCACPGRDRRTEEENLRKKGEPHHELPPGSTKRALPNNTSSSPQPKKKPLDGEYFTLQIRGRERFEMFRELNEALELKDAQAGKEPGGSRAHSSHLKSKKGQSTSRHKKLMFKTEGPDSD

Binder | binding result [1] | binding result [2] | binding result [3] | binding result [4] | binding result (His-tagged p53)
B1 | binds | binds |  |  | 
B2 |  |  | binds | binds | no binding (tested: 10 µM)
